Laboratory results as given in US20240141072A1 (published 2024).

T1: biotinylated human DLL3 protein expressed as a human IgG1 fusion protein (human, UniProt Q9NYJ7 27-492, limits assumed, biotinylated)
T1 sequence: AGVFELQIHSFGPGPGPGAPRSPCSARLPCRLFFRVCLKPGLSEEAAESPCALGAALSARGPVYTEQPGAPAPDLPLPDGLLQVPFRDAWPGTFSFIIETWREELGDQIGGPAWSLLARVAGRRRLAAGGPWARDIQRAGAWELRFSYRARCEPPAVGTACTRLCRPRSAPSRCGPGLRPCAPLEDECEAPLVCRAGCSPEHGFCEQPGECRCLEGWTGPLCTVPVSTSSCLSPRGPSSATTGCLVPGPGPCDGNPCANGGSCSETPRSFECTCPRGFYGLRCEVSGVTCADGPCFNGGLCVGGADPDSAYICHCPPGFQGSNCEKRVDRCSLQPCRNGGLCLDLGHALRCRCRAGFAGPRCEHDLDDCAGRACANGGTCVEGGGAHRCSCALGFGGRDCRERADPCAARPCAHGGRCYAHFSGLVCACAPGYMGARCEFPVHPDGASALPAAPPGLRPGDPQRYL


Biological target: T1, biotinylated human DLL3 protein …
Test: Octet BLI, single 50 nM
Procedure: Using the conditioned medium with known concentrations of the anti-DLL3 trispecific proteins, the binding affinities of the anti-DLL3 trispecific proteins toward human DLL3 protein were measured using a method where biotinylated version of human DLL3 protein were expressed as a human IgG1 fusion protein, and the binding affinity measurement was carried out in an Octet instrument with streptavidin tips.

| Kd [nM] | Binder |
| --- | --- |
| 7.1 | 1C07 anti-DLL3 trispecific protein (other, not shown: linker 1808, anti-albumin sdAb, linker 1808, anti-CD3 fragment, His6 1819) EVQLVESGGGLVQPGGSLTLSCVASGSTSSINAMAWYRRAPGKQRELVAGISSDGSKVYADSVKGRFTISRDNAKNSVYLQMNSLRAEDTAVYYCYYFRTVSGSSMRYWGQGTLVTVSS |
| 12 | 1B08 anti-DLL3 trispecific protein (other, not shown: linker 1808, anti-albumin sdAb, linker 1808, anti-CD3 fragment, His6 1819) EVQLVESGGGLVQPGGSLTLSCVASGTTSSINAMGWYRRAPGKQRELVAGISSDGSKVYVDSVKGRFTISRDNAKNSVYLQMNSLRAEDTAVYYCYYFRFVSGSSMRYWGQGTLVTVSS |
| 5.7 | 1B011 anti-DLL3 trispecific protein (other, not shown: linker 1808, anti-albumin sdAb, linker 1808, anti-CD3 fragment, His6 1819) EVQLVESGGGLVQPGGSLTLSCVASGSTSRINAMGWYRRAPGKQRELVAGISSDGSKVYADSVKGRFTISRDNAKNSVYLQMNSLRAEDTAVYYCYYFRTVYGSSMRYWGQGTLVTVSS |
| 4.3 | 1C01 anti-DLL3 trispecific protein (other, not shown: linker 1808, anti-albumin sdAb, linker 1808, anti-CD3 fragment, His6 1819) EVQLVESGGGLVQPGGSLTLSCVASGSTSSINAMGWYRRAPGKQRELVAGISSDGSKVYRDSVKGRFTISRDNAKNSVYLQMNSLRAEDTAVYYCYYFRTVSGSSMGYWGQGTLVTVSS |
| 4.9 | 1A012 anti-DLL3 trispecific protein (other, not shown: linker 1808, anti-albumin sdAb, linker 1808, anti-CD3 fragment, His6 1819) EVQLVESGGGLVQPGGSLTLSCVASGSTSSINAMAWYRRAPGKQRELVAGISSDGSKVYSDSVKGRFTISRDNAKNSVYLQMNSLRAEDTAVYYCYYFRTVLGSSMRYWGQGTLVTVSS |
| 5.6 | 1A06 anti-DLL3 trispecific protein (other, not shown: linker 1808, anti-albumin sdAb, linker 1808, anti-CD3 fragment, His6 1819) EVQLVESGGGLVQPGGSLTLSCVASGSTSSINAMGWYRRAPGKQRELAAGISSDGSSVYADSVKGRFTISRDNAKNSVYLQMNSLRAEDTAVYYCYYFRTVSGSSKRYWGQGTLVTVSS |
| 8.3 | 1C06 anti-DLL3 trispecific protein (other, not shown: linker 1808, anti-albumin sdAb, linker 1808, anti-CD3 fragment, His6 1819) EVQLVESGGGLVQPGGSLTLSCVASGSTSIINAMGWYRRAPGKQRELVAGISSDGSKVYEDSVKGRFTISRDNAKNSVYLQMNSLRAEDTAVYYCYYFRAVSGSSMRYWGQGTLVTVSS |
| 8.7 | 1B03 anti-DLL3 trispecific protein (other, not shown: linker 1808, anti-albumin sdAb, linker 1808, anti-CD3 fragment, His6 1819) EVQLVESGGGLVQPGGSLTLSCVASGKTSSINAMAWYRRAPGKQRELVAGISSDGSKVYTDSVKGRFTISRDNAKNSVYLQMNSLRAEDTAVYYCYYFRTVSGSSARYWGQGTLVTVSS |
| 8.1 | 1C04 anti-DLL3 trispecific protein (other, not shown: linker 1808, anti-albumin sdAb, linker 1808, anti-CD3 fragment, His6 1819) EVQLVESGGGLVQPGGSLTLSCVASGNTSSINAMAWYRRAPGKQRELVAGISSDGSKVYADSVKGRFTISRDNAKNSVYLQMNSLRAEDTAVYYCYYFRTVSGSSMRYWGQGTLVTVSS |
| 7 | 1A01 anti-DLL3 trispecific protein (other, not shown: linker 1808, anti-albumin sdAb, linker 1808, anti-CD3 fragment, His6 1819) EVQLVESGGGLVQPGGSLTLSCVASGFTSSINAMGWYRRAPGKQRELVAGISSDGSFVYADSVKGRFTISRDNAKNSVYLQMNSLRAEDTAVYYCYYFRHVSGSSMRYWGQGTLVTVSS |
| 6.6 | 1A09 anti-DLL3 trispecific protein (other, not shown: linker 1808, anti-albumin sdAb, linker 1808, anti-CD3 fragment, His6 1819) EVQLVESGGGLVQPGGSLTLSCVASGSTSSINAMAWYRRAPGKQRELVAGISSDGSKLYADSVKGRFTISRDNAKNSVYLQMNSLRAEDTAVYYCYYFRTVQGSSMRYWGQGTLVTVSS |
| 5.2 | 1B01 anti-DLL3 trispecific protein (other, not shown: linker 1808, anti-albumin sdAb, linker 1808, anti-CD3 fragment, His6 1819) EVQLVESGGGLVQPGGSLTLSCVASGSTSIINAMGWYRRAPGKQRELAAGISSDGSKVIADSVKGRFTISRDNAKNSVYLQMNSLRAEDTAVYYCYYFRRVSGSSMRYWGQGTLVTVSS |
| 4 | 1A05 anti-DLL3 trispecific protein (other, not shown: linker 1808, anti-albumin sdAb, linker 1808, anti-CD3 fragment, His6 1819) EVQLVESGGGLVQPGGSLTLSCVASGSPSSINAMGWYRRAPGKQRELSAGISSDGSKVYADSVKGRFTISRDNAKNSVYLQMNSLRAEDTAVYYCYYFRTVRGSSMSYWGQGTLVTVSS |
| 2.5 | 1C010 anti-DLL3 trispecific protein (other, not shown: linker 1808, anti-albumin sdAb, linker 1808, anti-CD3 fragment, His6 1819) EVQLVESGGGLVQPGGSLTLSCVASGSTSRINAMGWYRRAPGKQRELVAGVSSDGSKVYADSVKGRFTISRDNAKNSVYLQMNSLRAEDTAVYYCYYFRTVSGSSMSYWGQGTLVTVSS |
| 5.3 | 1C05 anti-DLL3 trispecific protein (other, not shown: linker 1808, anti-albumin sdAb, linker 1808, anti-CD3 fragment, His6 1819) EVQLVESGGGLVQPGGSLTLSCVASGSTSSINAMAWYRRAPGKQRELVAGISSDGSKVYADSVKGRFTISRDNAKNSVYLQMNSLRAEDTAVYYCYYFRTVSGSHMRYWGQGTLVTVSS |
| 6.3 | 1A03 anti-DLL3 trispecific protein (other, not shown: linker 1808, anti-albumin sdAb, linker 1808, anti-CD3 fragment, His6 1819) EVQLVESGGGLVQPGGSLTLSCVASGSTSSINAMAWYRRAPGKQRELVAGISSDGSKVYADSVKGRFTISRDNAKNSVYLQMNSLRAEDTAVYYCYYFRTVSGSSSRYWGQGTLVTVSS |

| Kd [nM] | Binder |
| --- | --- |
| 8.9 | 1B07 anti-DLL3 trispecific protein (other, not shown: linker 1808, anti-albumin sdAb, linker 1808, anti-CD3 fragment, His6 1819) EVQLVESGGGLVQPGGSLTLSCVASGSGSSINAMGWYRRAPGKQRELVAGISSDGSKVYSDSVKGRFTISRDNAKNSVYLQMNSLRAEDTAVYYCYYFRHVSGSSMRYWGQGTLVTVSS |
| 8 | 1B05 anti-DLL3 trispecific protein (other, not shown: linker 1808, anti-albumin sdAb, linker 1808, anti-CD3 fragment, His6 1819) EVQLVESGGGLVQPGGSLTLSCVASGSTSSINAMAWYRRAPGKQRELVAGISSDGSKVYADSVKGRFTISRDNAKNSVYLQMNSLRAEDTAVYYCYYYRTVSGSSMRYWGQGTLVTVSS |
| 14 | 1D02 anti-DLL3 trispecific protein (other, not shown: linker 1808, anti-albumin sdAb, linker 1808, anti-CD3 fragment, His6 1819) EVQLVESGGGLVQPGGSLTLSCVASGSTSSINAMAWYRRAPGKQRELVAGISSNGSKVYADSVKGRFTISRDNAKNSVYLQMNSLRAEDTAVYYCYYFRQVSGSSMRYWGQGTLVTVSS |
| 6.2 | 1C02 anti-DLL3 trispecific protein (other, not shown: linker 1808, anti-albumin sdAb, linker 1808, anti-CD3 fragment, His6 1819) EVQLVESGGGLVQPGGSLTLSCVASGSTSSINAMAWYRRAPGKQRELVAGISSDGSKVYSDSVKGRFTISRDNAKNSVYLQMNSLRAEDTAVYYCYYFRTVSGSSMRSWGQGTLVTVSS |
| 8.6 | 1A07 anti-DLL3 trispecific protein (other, not shown: linker 1808, anti-albumin sdAb, linker 1808, anti-CD3 fragment, His6 1819) EVQLVESGGGLVQPGGSLTLSCVASGSISSINAMGWYRRAPGKQRELVAGISSDGSKVYADSVKGRFTISRDNAKNSVYLQMNSLRAEDTAVYYCYYFRMVSGSSMRYWGQGTLVTVSS |
| 6.5 | 1A010 anti-DLL3 trispecific protein (other, not shown: linker 1808, anti-albumin sdAb, linker 1808, anti-CD3 fragment, His6 1819) EVQLVESGGGLVQPGGSLTLSCVASGSTSSINAYGWYRRAPGKQRELVAGISSDGSKVYADSVKGRFTISRDNAKNSVYLQMNSLRAEDTAVYYCYYFRTVYGSSMRYWGQGTLVTVSS |
| 7.8 | 1A04 anti-DLL3 trispecific protein (other, not shown: linker 1808, anti-albumin sdAb, linker 1808, anti-CD3 fragment, His6 1819) EVQLVESGGGLVQPGGSLTLSCVASGSTSSINAMGWYRRAPGKQRELVAGISSDGSKVYEDSVKGRFTISRDNAKNSVYLQMNSLRAEDTAVYYCYYFRTVSGSSMRYWGQGTLVTVSS |
| 7.6 | 1C011 anti-DLL3 trispecific protein (other, not shown: linker 1808, anti-albumin sdAb, linker 1808, anti-CD3 fragment, His6 1819) EVQLVESGGGLVQPGGSLTLSCVASGTTSSINAMGWYRRAPGKQRELVAGISSDGSKVYEDSVKGRFTISRDNAKNSVYLQMNSLRAEDTAVYYCYYFRTVSGSSMRYWGQGTLVTVSS |
| 8.5 | 1C012 anti-DLL3 trispecific protein (other, not shown: linker 1808, anti-albumin sdAb, linker 1808, anti-CD3 fragment, His6 1819) EVQLVESGGGLVQPGGSLTLSCVASGITSSINAMGWYRRAPGKQRELVAGISSDGSKVYAGSVKGRFTISRDNAKNSVYLQMNSLRAEDTAVYYCYYFRTVRGSSMRYWGQGTLVTVSS |
| 25 | 1C08 anti-DLL3 trispecific protein (other, not shown: linker 1808, anti-albumin sdAb, linker 1808, anti-CD3 fragment, His6 1819) EVQLVESGGGLVQPGGSLTLSCVASGSTSRINAMGWYRRAPGKQRELPAGISSDGSKVYAVSVKGRFTISRDNAKNSVYLQMNSLRAEDTAVYYCYYFRTVSGSPMRYWGQGTLVTVSS |
| 6.8 | 1B010 anti-DLL3 trispecific protein (other, not shown: linker 1808, anti-albumin sdAb, linker 1808, anti-CD3 fragment, His6 1819) EVQLVESGGGLVQPGGSLTLSCVASGSTSRINAMGWYRRAPGKQRELVAGISSDGSKVYADSVKGRFTISRDNAKNSVYLQMNSLRAEDTAVYYCYYFRTKSGSSMRYWGQGTLVTVSS |
| 11 | 1B02 anti-DLL3 trispecific protein (other, not shown: linker 1808, anti-albumin sdAb, linker 1808, anti-CD3 fragment, His6 1819) EVQLVESGGGLVQPGGSLTLSCVASGSTSSINAMGWYRRAPGKQRELVAGISSDGSKIYADSVKGRFTISRDNAKNSVYLQMNSLRAEDTAVYYCYYFRTVSGSSMRYWGQGTLVTVSS |
| 5.8 | 1D01 anti-DLL3 trispecific protein (other, not shown: linker 1808, anti-albumin sdAb, linker 1808, anti-CD3 fragment, His6 1819) EVQLVESGGGLVQPGGSLTLSCVASGSTSDINAMGWYRRAPGKQRELVAGISSDKSKVYADSVKGRFTISRDNAKNSVYLQMNSLRAEDTAVYYCYYFRTVRGSSMRYWGQGTLVTVSS |
| 11 | 1B04 anti-DLL3 trispecific protein (other, not shown: linker 1808, anti-albumin sdAb, linker 1808, anti-CD3 fragment, His6 1819) EVQLVESGGGLVQPGGSLTLSCVASGTTSSINAMGWYRRAPGKQRELVAGISSDGSLVYADSVKGRFTISRDNAKNSVYLQMNSLRAEDTAVYYCYYFRIVRGSSMRYWGQGTLVTVSS |
| 5.4 | 1B09 anti-DLL3 trispecific protein (other, not shown: linker 1808, anti-albumin sdAb, linker 1808, anti-CD3 fragment, His6 1819) EVQLVESGGGLVQPGGSLTLSCVASGSTSSINAMAWYRRAPGKQRELVAGISSDGSKVYVDSVKGRFTISRDNAKNSVYLQMNSLRAEDTAVYYCYYFRTVSGSSMRYWGQGTLVTVSS |
